Values of other authors in patent publication US11207384B2, “Rapid-acting insulin compositions” (Eli Lilly and Company, priority 2017, dated 2021).

Experiments:
[1] = for time until maximum circulating insulin concentration is reached: following the injection
[2] = target: T1, insulin receptor (Homo sapiens, UniProt P06213); settings: insulin receptor binding in cultured lymphocytes, human placenta and human liver, glucose transport in adipocytes
T1 construct: host or cells: cultured lymphocytes, human placenta, human liver

[3] = on a molar basis

Row | equivalence to insulin in in vitro tests (in words) [2] | Substance | time until maximum circulating insulin concentration is reached [1] [min] | kinetics compared to human insulin (in words) ([1]; Tmax, half-life, Cmax) | effect after subcutaneous injection compared with soluble human insulin (in words) ([1]; subcutaneous injection) | potency relative to human insulin (in words) [3]
1 |  | insulin aspart | 50 to 90 |  |  | 
2 |  | insulin glulisine | 50 to 90 |  |  | 
3 | biologically equivalent to insulin | insulin lispro | 50 to 90 | shorter Tmax and half-life and with a higher Cmax | more rapid and of shorter duration than that of injected soluble human insulin | equipotent to human insulin on a molar basis
